This experiment deals with T1, FcγRIIb extracellular domain with C-terminal His tag (human, UniProt P31994 43-217).
T1 construct: extracellular domain; Expressed in FreeStyle293 cells; used as analyte in Biacore; also called FcgRIIb; 2b; not shown: C-terminal His tag
T1 sequence (looked up): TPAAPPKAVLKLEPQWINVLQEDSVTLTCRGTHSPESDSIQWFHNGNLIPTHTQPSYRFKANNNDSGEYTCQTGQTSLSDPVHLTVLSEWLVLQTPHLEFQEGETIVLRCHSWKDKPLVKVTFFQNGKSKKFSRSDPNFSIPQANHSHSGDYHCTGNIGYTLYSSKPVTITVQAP
Put plainly: SPR (Biacore), antibody captured on antigen-peptide chip, FcgRIIb as analyte; binding relative to GpH7-A5/GpH7-B3/GpL16-k0 (HeCon Ab) = 100. For orientation: In SPR one partner is held on a chip, and binding of the other changes the refractive index at the surface.

B1: GpH7-A5/GpH7-B3 variant L328_15Y/GpL16-k0 (He Ab) (antibody, human IgG1, kappa)
heavy 1: not shown
heavy 2: not shown
light: DIVMTQSPLSLPVTPGEPASISCQASESLVHSNRNTYLHWYLQKPGQSPQLLIYKVSNRFSGVPDRFSGSGSGTDFTLKISRVEAEDVGVYYCSQNTHVPPTFGQGTKVEIERTVAAPSVFIFPPSDEQLKSGTASVVCLLNNFYPREAKVQWKVDNALQSGNSQESVTEQDSKDSTYSLSSTLTLSKADYEKHKVYACEVTHQGLSSPVTKSFNRGEC
notes: Substitution in one H chain only; position in EU numbering; also called L328Y heterodimerized antibody
Regarding B1, the He/Con_2b was 193 % of control.

B2: GpH7-A5/GpH7-B3 variant L328_19Q/GpL16-k0 (He Ab) (antibody, human IgG1, kappa)
heavy 1: not shown
heavy 2: not shown
light: DIVMTQSPLSLPVTPGEPASISCQASESLVHSNRNTYLHWYLQKPGQSPQLLIYKVSNRFSGVPDRFSGSGSGTDFTLKISRVEAEDVGVYYCSQNTHVPPTFGQGTKVEIERTVAAPSVFIFPPSDEQLKSGTASVVCLLNNFYPREAKVQWKVDNALQSGNSQESVTEQDSKDSTYSLSSTLTLSKADYEKHKVYACEVTHQGLSSPVTKSFNRGEC
notes: Substitution in one H chain only; position in EU numbering; also called L328Q heterodimerized antibody
Take B2: the He/Con_2b is 105 % of control.

B3: GpH7-A5/GpH7-B3 variant P331_04F/GpL16-k0 (He Ab) (antibody, human IgG1, kappa)
heavy 1: not shown
heavy 2: not shown
light: DIVMTQSPLSLPVTPGEPASISCQASESLVHSNRNTYLHWYLQKPGQSPQLLIYKVSNRFSGVPDRFSGSGSGTDFTLKISRVEAEDVGVYYCSQNTHVPPTFGQGTKVEIERTVAAPSVFIFPPSDEQLKSGTASVVCLLNNFYPREAKVQWKVDNALQSGNSQESVTEQDSKDSTYSLSSTLTLSKADYEKHKVYACEVTHQGLSSPVTKSFNRGEC
notes: Substitution in one H chain only; position in EU numbering; also called P331F heterodimerized antibody
B3: the He/Con_2b is 110 % of control.

B4: GpH7-A5/GpH7-B3 variant S298_08L/GpL16-k0 (He Ab) (antibody, human IgG1, kappa)
heavy 1: not shown
heavy 2: not shown
light: DIVMTQSPLSLPVTPGEPASISCQASESLVHSNRNTYLHWYLQKPGQSPQLLIYKVSNRFSGVPDRFSGSGSGTDFTLKISRVEAEDVGVYYCSQNTHVPPTFGQGTKVEIERTVAAPSVFIFPPSDEQLKSGTASVVCLLNNFYPREAKVQWKVDNALQSGNSQESVTEQDSKDSTYSLSSTLTLSKADYEKHKVYACEVTHQGLSSPVTKSFNRGEC
notes: Substitution in one H chain only; position in EU numbering; also called S298L heterodimerized antibody
As to B4, the He/Con_2b is 108 % of control.

B5: GpH7-A5/GpH7-B3 variant S267_02A/GpL16-k0 (He Ab) (antibody, human IgG1, kappa)
heavy 1: not shown
heavy 2: not shown
light: DIVMTQSPLSLPVTPGEPASISCQASESLVHSNRNTYLHWYLQKPGQSPQLLIYKVSNRFSGVPDRFSGSGSGTDFTLKISRVEAEDVGVYYCSQNTHVPPTFGQGTKVEIERTVAAPSVFIFPPSDEQLKSGTASVVCLLNNFYPREAKVQWKVDNALQSGNSQESVTEQDSKDSTYSLSSTLTLSKADYEKHKVYACEVTHQGLSSPVTKSFNRGEC
notes: Substitution in one H chain only; position in EU numbering; also called S267A heterodimerized antibody
For B5, the He/Con_2b is 243 % of control.

B6: GpH7-A5/GpH7-B3 variant P271_08L/GpL16-k0 (He Ab) (antibody, human IgG1, kappa)
heavy 1: not shown
heavy 2: not shown
light: DIVMTQSPLSLPVTPGEPASISCQASESLVHSNRNTYLHWYLQKPGQSPQLLIYKVSNRFSGVPDRFSGSGSGTDFTLKISRVEAEDVGVYYCSQNTHVPPTFGQGTKVEIERTVAAPSVFIFPPSDEQLKSGTASVVCLLNNFYPREAKVQWKVDNALQSGNSQESVTEQDSKDSTYSLSSTLTLSKADYEKHKVYACEVTHQGLSSPVTKSFNRGEC
notes: Substitution in one H chain only; position in EU numbering; also called P271L heterodimerized antibody
In the case of B6, the He/Con_2b is 103 % of control.

B7: GpH7-A5/GpH7-B3 variant S267_10E/GpL16-k0 (He Ab) (antibody, human IgG1, kappa)
heavy 1: not shown
heavy 2: not shown
light: DIVMTQSPLSLPVTPGEPASISCQASESLVHSNRNTYLHWYLQKPGQSPQLLIYKVSNRFSGVPDRFSGSGSGTDFTLKISRVEAEDVGVYYCSQNTHVPPTFGQGTKVEIERTVAAPSVFIFPPSDEQLKSGTASVVCLLNNFYPREAKVQWKVDNALQSGNSQESVTEQDSKDSTYSLSSTLTLSKADYEKHKVYACEVTHQGLSSPVTKSFNRGEC
notes: Substitution in one H chain only; position in EU numbering; also called S267E heterodimerized antibody
As for B7, the He/Con_2b is 379 % of control.

B8: GpH7-A5/GpH7-B3 variant S267_03V/GpL16-k0 (He Ab) (antibody, human IgG1, kappa)
heavy 1: not shown
heavy 2: not shown
light: DIVMTQSPLSLPVTPGEPASISCQASESLVHSNRNTYLHWYLQKPGQSPQLLIYKVSNRFSGVPDRFSGSGSGTDFTLKISRVEAEDVGVYYCSQNTHVPPTFGQGTKVEIERTVAAPSVFIFPPSDEQLKSGTASVVCLLNNFYPREAKVQWKVDNALQSGNSQESVTEQDSKDSTYSLSSTLTLSKADYEKHKVYACEVTHQGLSSPVTKSFNRGEC
notes: Substitution in one H chain only; position in EU numbering; also called S267V heterodimerized antibody
Consider B8, for which the He/Con_2b was 192 % of control.

B9: GpH7-A5/GpH7-B3 variant S267_08L/GpL16-k0 (He Ab) (antibody, human IgG1, kappa)
heavy 1: not shown
heavy 2: not shown
light: DIVMTQSPLSLPVTPGEPASISCQASESLVHSNRNTYLHWYLQKPGQSPQLLIYKVSNRFSGVPDRFSGSGSGTDFTLKISRVEAEDVGVYYCSQNTHVPPTFGQGTKVEIERTVAAPSVFIFPPSDEQLKSGTASVVCLLNNFYPREAKVQWKVDNALQSGNSQESVTEQDSKDSTYSLSSTLTLSKADYEKHKVYACEVTHQGLSSPVTKSFNRGEC
notes: Substitution in one H chain only; position in EU numbering; also called S267L heterodimerized antibody
Turning to B9, the He/Con_2b was 109 % of control.

B10: GpH7-A5/GpH7-B3 variant S239_08L/GpL16-k0 (He Ab) (antibody, human IgG1, kappa)
heavy 1: not shown
heavy 2: not shown
light: DIVMTQSPLSLPVTPGEPASISCQASESLVHSNRNTYLHWYLQKPGQSPQLLIYKVSNRFSGVPDRFSGSGSGTDFTLKISRVEAEDVGVYYCSQNTHVPPTFGQGTKVEIERTVAAPSVFIFPPSDEQLKSGTASVVCLLNNFYPREAKVQWKVDNALQSGNSQESVTEQDSKDSTYSLSSTLTLSKADYEKHKVYACEVTHQGLSSPVTKSFNRGEC
notes: Substitution in one H chain only; position in EU numbering; also called S239L heterodimerized antibody
As to B10, the He/Con_2b was 140 % of control.

(Values after patent US20180155451A1 (published 2018).)
